From patent publication US12692294B2, “Engineered NRG-1 variants with improved selectivity toward ErbB4 but not against ErbB3” (Amgen Inc., priority 2021, dated 2026)
Numbering of substitutions follows the chain as printed. Names and notes keep the numbering of the source. Values joined by “and” are separate entries in the source; they are usually repeats but may differ in a detail not shown here. Equal values may be shown once.

B1: :huNRG1(S177-F229)(NRGE1C)::2X(G4A)G4::huFcSEFL2v131(+): Fc fusion of NRG1 variant SEQ ID NO:117 (protein)
chain: SHLVKCGEKHKSFCVNGGECFMIEGPSNPSRYLCKCPNEFTGDRCQEDFMASFGGGGAGGGGAGGGGDKTHTCPPCPAPELLGGPSVFLFPPKPKDTLMISRTPEVTCVVVDVSHEDPEVKFNWYVDGVEVHNAKTKPCEEQYGSTYRCVSVLTVLHQDWLNGKEYKCKVSNKALPAPIEKTISKAKGQPREPQVYTLPPSREKMTKNQVSLTCLVKGFYPSDIAVEWESNGQPENNYKTTPPVLKSDGSFFLYSKLTVDKSRWQQGNVFSCSVMHEALHNHYTQKSLSLSPGKDKTHTCPPCPAPELLGGPSVFLFPPKPKDTLMISRTPEVTCVVVDVSHEDPEVKFNWYVDGVEVHNAKTKPCEEQYGSTYRCVSVLTVLHQDWLNGKEYKCKVSNKALPAPIEKTISKAKGQPREPQVYTLPPSREEMTENQVSLTCLVEGFYPSDIAVEWESNGQPENNYETTPPVLDSDGSFFLYSDLTVDKSRWQQGNVFSCSVMHEALHNHYTQKSLSLSPGK
modifications: huNRG1(S177-F229)(NRGE1C) ::2X(G4A)G4::huFcSEFL2v131(+)
B2: :huNRG1(S177-F229)(NRGE1D)::2X(G4E)G4::huFcSEFL2v131(+): Fc fusion of NRG1 variant SEQ ID NO:126 (protein)
chain: B1 chain with K9S, F21Y, I23V, P26S, N28I, A58E, A63E
modifications: huNRG1(S177-F229)(NRGE1D) ::2X(G4E)G4::huFcSEFL2v131(+)
B3: :huNRG1(S177-F229)(NRGE1C)::2X(G4E)G4::huFcSEFL2v131(+): Fc fusion of NRG1 variant SEQ ID NO:117 (protein)
chain: B1 chain with A58E, A63E
modifications: huNRG1(S177-F229)(NRGE1C) ::2X(G4E)G4::huFcSEFL2v131(+)
B4: :huNRG1(S177-F229)(NRGE1D)::2X(G4A)G4::huFcSEFL2v131(+): Fc fusion of NRG1 variant SEQ ID NO:126 (protein)
chain: B1 chain with K9S, F21Y, I23V, P26S, N28I
modifications: huNRG1(S177-F229)(NRGE1D) ::2X(G4A)G4::huFcSEFL2v131(+)
B5: huNRG1(S177-F229)(NRGE1C) 6xHis: 6xHis-tagged NRG1 variant SEQ ID NO:117 (protein)
chain: SHLVKCGEKHKSFCVNGGECFMIEGPSNPSRYLCKCPNEFTGDRCQEDFMASFGGGGEGGGGAGGGGHHHHHH
modifications: 6xHis tag; huNRG1(S177-F229)(NRGE1C) 6xHis
B6: huNRG1(S177-F229)(NRGE1C) (E47A_D48P_F49H_M50I) 6xHis: 6xHis-tagged NRG1 variant SEQ ID NO:119 (protein)
chain: B5 chain with E47A, D48P, F49H, M50I
modifications: 6xHis tag; huNRG1(S177-F229)(NRGE1C) (E47A_D48P_F49H_M50I) 6xHis
B7: huNRG1(S177-F229)(NRGE1C) (D48T_F49Q_M50I) 6xHis: 6xHis-tagged NRG1 variant SEQ ID NO:118 (protein)
chain: B5 chain with D48T, F49Q, M50I
modifications: 6xHis tag; huNRG1(S177-F229)(NRGE1C) (D48T_F49Q_M50I) 6xHis
B8: huNRG1(S177-F229)(NRGE1C) (E47K_D48T_F49S_M50L) 6xHis: 6xHis-tagged NRG1 variant SEQ ID NO:120 (protein)
chain: B5 chain with E47K, D48T, F49S, M50L
modifications: 6xHis tag; huNRG1(S177-F229)(NRGE1C) (E47K_D48T_F49S_M50L) 6xHis
B9: :huFcSEFL2(desK)vl31(+):G4SG4:huNRG1(S177-Q237)(NRGE1C): N-terminal Fc fusion of NRG1 variant SEQ ID NO:124 (protein)
chain: DKTHTCPPCPAPELLGGPSVFLFPPKPKDTLMISRTPEVTCVVVDVSHEDPEVKFNWYVDGVEVHNAKTKPCEEQYGSTYRCVSVLTVLHQDWLNGKEYKCKVSNKALPAPIEKTISKAKGQPREPQVYTLPPSREKMTKNQVSLTCLVKGFYPSDIAVEWESNGQPENNYKTTPPVLKSDGSFFLYSKLTVDKSRWQQGNVFSCSVMHEALHNHYTQKSLSLSPGGGGGSGGGGSHLVKCGEKHKSFCVNGGECFMIEGPSNPSRYLCKCPNEFTGDRCQEDFMASFYKAEELYQDKTHTCPPCPAPELLGGPSVFLFPPKPKDTLMISRTPEVTCVVVDVSHEDPEVKFNWYVDGVEVHNAKTKPCEEQYGSTYRCVSVLTVLHQDWLNGKEYKCKVSNKALPAPIEKTISKAKGQPREPQVYTLPPSREEMTENQVSLTCLVEGFYPSDIAVEWESNGQPENNYETTPPVLDSDGSFFLYSDLTVDKSRWQQGNVFSCSVMHEALHNHYTQKSLSLSPGK
modifications: huFcSEFL2(desK)v131(+)G4SG4huNRG1(S177-Q237) (NRGE1C)
B10: :huFcSEFL2(desK)vl31(+):G4SG4:huNRG1(S177-Q237)(NRGE1D): N-terminal Fc fusion of NRG1 variant SEQ ID NO:131 (protein)
chain: B9 chain with K244S, F256Y, I258V, P261S, N263I
modifications: huFcSEFL2(desK)v131(+)G4SG4huNRG1(S177-Q237) (NRGE1D)
B11: Wild-type as control: wild-type neuregulin sequence used as control in the Akt assays; construct not specified (wild-type fragment: SEQ ID NO: 112) (protein)
chain: SHLVKCAEKEKTFCVNGGECFMVKDLSNPSRYLCKCPNEFTGDRCQNYVMASFYKAEELYQ
modifications: chains of the parent or of the whole protein
B12: huNRG1(S177-S228)(NRGE1C)::3x(G4Q)::huFcSEFL2 (Pb): Fc fusion of NRG1 variant SEQ ID NO:116 (protein)
chain: STYRCVSVLTVLHQDWLNGKEYKCKVSNKALPAPIEKTISKAKGQPREPQVYTLPPSREEMTKNQVSLTCLVKGFYPSDIAVEWESNGQPENNYKTTPPVLDSDGSFFLYSKLTVDKSRWQQGNVFSCSVMHEALHNHYTQKSLSLSPGK
modifications: huNRG1(S177-S228)(NRGE1C)::3x(G4Q)::huFcSEFL2 (Pb)
B13: huNRG1(S177-S228)(wt)::3x(G4Q)::huFcSEFL2 (Pb): Fc fusion of wild-type NRG1 fragment S177-S228 (protein)
chain: B12 chain
modifications: huNRG1(S177-S228)(wt)::3x(G4Q)::huFcSEFL2 (Pb)

Key:
ErbB4 = molecular target: T1, ErbB4 (Rattus norvegicus, UniProt Q62956); experiment: In vitro phosphorylation of Akt in neonatal rat cardiomyocytes; format: cell-based; conditions: for EC50: Akt (Serine 473) phosphorylation, neonatal rat cardiomyocytes, 15 minutes treatment, read-out: Cardiomyocyte (CM) (ErbB4) Avg EC50; for Selectivity SC/CM: ratio of EC50s Schwann cells/cardiomyocytes; for CM % Agonism AVG: top value of the Akt phosphorylation data points in cardiomyocytes, wild-type control 100
T1 construct: forming the ErbB2/ErbB4 complex in cardiomyocytes and the ErbB2/ErbB3 complex in Schwann cells; endogenous in cells; host or cells: primary neonatal rat cardiomyocytes (Sprague Dawley pups, 0 to 4 days old)
T1 sequence (Q62956 26-1308): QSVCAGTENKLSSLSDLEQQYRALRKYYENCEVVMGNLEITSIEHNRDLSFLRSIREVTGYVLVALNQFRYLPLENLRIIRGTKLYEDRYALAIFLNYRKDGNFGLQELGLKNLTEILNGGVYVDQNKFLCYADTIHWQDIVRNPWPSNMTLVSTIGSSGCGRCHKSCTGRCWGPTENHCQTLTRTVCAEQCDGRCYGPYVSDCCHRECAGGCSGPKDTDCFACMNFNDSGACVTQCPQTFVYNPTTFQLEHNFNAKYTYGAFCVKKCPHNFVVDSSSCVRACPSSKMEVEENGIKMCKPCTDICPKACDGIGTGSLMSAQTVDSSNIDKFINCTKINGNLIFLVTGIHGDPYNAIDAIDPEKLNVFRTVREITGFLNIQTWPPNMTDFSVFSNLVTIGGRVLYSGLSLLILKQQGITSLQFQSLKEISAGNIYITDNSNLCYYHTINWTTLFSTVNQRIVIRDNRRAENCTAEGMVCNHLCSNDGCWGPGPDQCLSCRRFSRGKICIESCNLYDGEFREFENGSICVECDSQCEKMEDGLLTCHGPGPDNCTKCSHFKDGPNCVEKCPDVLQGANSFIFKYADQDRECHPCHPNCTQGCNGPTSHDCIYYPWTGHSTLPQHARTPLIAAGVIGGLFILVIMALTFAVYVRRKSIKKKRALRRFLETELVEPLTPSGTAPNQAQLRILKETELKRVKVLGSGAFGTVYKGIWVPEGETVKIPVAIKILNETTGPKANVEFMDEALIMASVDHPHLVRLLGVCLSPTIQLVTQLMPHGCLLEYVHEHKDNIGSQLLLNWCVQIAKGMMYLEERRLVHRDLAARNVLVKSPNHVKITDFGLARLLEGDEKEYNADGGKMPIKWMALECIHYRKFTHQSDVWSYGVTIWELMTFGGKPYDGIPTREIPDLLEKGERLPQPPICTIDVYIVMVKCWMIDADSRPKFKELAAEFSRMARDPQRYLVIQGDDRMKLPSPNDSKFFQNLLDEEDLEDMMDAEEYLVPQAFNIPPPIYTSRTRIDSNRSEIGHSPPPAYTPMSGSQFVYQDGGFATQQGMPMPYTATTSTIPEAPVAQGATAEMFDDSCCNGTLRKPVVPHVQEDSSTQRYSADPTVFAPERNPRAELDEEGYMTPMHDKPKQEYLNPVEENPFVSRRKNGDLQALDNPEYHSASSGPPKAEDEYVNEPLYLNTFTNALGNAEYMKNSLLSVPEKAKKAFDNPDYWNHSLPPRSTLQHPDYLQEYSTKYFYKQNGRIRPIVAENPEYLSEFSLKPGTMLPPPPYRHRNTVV
T1 sequence (P06494 23-1257 partner): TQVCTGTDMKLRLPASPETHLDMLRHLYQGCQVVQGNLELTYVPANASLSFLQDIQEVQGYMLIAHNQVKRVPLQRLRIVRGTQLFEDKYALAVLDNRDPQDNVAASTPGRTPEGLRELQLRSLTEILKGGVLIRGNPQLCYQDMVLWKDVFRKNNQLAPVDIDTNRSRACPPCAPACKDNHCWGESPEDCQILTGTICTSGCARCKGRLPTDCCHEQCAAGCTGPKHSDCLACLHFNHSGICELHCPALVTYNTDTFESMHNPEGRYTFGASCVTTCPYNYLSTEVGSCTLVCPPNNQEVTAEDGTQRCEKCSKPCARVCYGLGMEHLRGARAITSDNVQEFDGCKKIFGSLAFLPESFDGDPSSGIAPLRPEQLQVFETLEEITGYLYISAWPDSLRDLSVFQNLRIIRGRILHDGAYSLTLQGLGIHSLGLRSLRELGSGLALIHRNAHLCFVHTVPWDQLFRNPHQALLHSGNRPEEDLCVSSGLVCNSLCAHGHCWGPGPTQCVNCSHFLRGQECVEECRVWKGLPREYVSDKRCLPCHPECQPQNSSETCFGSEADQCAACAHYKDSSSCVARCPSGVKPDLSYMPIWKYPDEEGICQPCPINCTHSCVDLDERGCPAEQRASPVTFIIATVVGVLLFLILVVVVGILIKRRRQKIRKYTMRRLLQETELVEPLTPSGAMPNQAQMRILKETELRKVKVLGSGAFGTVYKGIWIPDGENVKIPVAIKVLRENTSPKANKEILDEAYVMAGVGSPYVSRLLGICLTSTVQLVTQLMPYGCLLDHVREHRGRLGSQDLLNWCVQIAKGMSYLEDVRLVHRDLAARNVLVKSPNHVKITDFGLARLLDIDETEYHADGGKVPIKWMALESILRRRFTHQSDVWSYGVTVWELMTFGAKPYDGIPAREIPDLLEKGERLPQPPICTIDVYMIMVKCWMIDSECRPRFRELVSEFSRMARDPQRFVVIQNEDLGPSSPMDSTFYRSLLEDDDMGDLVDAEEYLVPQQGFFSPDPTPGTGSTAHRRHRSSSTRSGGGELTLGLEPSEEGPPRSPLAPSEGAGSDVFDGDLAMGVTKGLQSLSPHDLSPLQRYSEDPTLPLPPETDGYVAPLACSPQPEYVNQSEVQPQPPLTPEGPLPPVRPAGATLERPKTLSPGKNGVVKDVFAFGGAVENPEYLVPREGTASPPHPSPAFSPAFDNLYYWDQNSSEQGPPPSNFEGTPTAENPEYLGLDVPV
Experimental: (§1) In Vitro Phosphorylation of Akt in Neonatal Rat Cardiomyocytes and Rat Schwann Cells by Neuregulin Variants
(§2) Specificity of neuregulin variants towards cardiomyocytes (ErbB4) versus Schwann cells (ErbB3) was tested by measuring Akt activity generated by formation of the ErbB2/ErbB4 and ErbB2/ErbB3 complexes. Upon activation by neuregulin, the ErbB4 and ErbB3 receptors dimerize preferentially with the ErbB2 co-receptor, forming the ErbB2/ErbB4 complex in cardiomyocytes and the ErbB2/ErbB3 complex in Schwann cells, both of which signal through the Akt pathway. Neonatal rat cardiomyocytes were isolated from hearts of Sprague Dawley rat pups at 0 to 4 days old according to manufacturer's protocol using the Neomyt kit and plated on Surecoat plates in NS media containing serum (all from Cellultron Life Technologies, Baltimore, MD). Rat Schwann cells were plated in Poly-D-Lysine coated plates with Dulbecco's modified Eagle's media (DMEM) supplemented with fetal bovine serum (Thermo Fisher) and forskolin (Millipore Sigma).
(§3) After a 24-hour incubation in a humidified incubator maintained at 37° C. and 5% CO2, cardiomyocytes and Schwann cells were washed with serum free media and incubated an additional 16 hours in DMEM supplemented with bovine serum albumin (Sigma). Both cell lines were then treated with titrations of the neuregulin variant molecules for 15 minutes, upon which cells were lysed in lysis buffer (Meso Scale Discovery (MSD)). For detection of Akt phosphorylation, lysates were added to the Multi-Spot 96-Well 4-Spot Phospho (Serine 473)/Total Akt plates (MSD), incubated according to the manufacturer's protocol and read in the SECTOR Imager 6000 (MSD). For both cell assays, the percent phosphorylation of Akt was calculated by multiplying the phospho Akt signal by 2, then dividing by the phospho Akt signal added to the total Akt signal and then multiplying by 100. The phosphorylation of Akt data points were fitted using a log (agonist) versus response, variable slope (4 parameters) analysis in GraphPad Prism to generate EC50 curves. The CM % agonism reflect the top value of the data points.

ErbB3 = molecular target: T2, ErbB3 (Rattus norvegicus, UniProt Q62799); experiment: In vitro phosphorylation of Akt in rat Schwann cells; format: cell-based; conditions: Akt (Serine 473) phosphorylation, 15 minutes treatment; for EC50: read-out: Schwann cells (SC) (ErbB3) Avg EC50
T2 construct: forming the ErbB2/ErbB4 complex in cardiomyocytes and the ErbB2/ErbB3 complex in Schwann cells; endogenous in cells; host or cells: rat Schwann cells
T2 sequence (Q62799 20-1339): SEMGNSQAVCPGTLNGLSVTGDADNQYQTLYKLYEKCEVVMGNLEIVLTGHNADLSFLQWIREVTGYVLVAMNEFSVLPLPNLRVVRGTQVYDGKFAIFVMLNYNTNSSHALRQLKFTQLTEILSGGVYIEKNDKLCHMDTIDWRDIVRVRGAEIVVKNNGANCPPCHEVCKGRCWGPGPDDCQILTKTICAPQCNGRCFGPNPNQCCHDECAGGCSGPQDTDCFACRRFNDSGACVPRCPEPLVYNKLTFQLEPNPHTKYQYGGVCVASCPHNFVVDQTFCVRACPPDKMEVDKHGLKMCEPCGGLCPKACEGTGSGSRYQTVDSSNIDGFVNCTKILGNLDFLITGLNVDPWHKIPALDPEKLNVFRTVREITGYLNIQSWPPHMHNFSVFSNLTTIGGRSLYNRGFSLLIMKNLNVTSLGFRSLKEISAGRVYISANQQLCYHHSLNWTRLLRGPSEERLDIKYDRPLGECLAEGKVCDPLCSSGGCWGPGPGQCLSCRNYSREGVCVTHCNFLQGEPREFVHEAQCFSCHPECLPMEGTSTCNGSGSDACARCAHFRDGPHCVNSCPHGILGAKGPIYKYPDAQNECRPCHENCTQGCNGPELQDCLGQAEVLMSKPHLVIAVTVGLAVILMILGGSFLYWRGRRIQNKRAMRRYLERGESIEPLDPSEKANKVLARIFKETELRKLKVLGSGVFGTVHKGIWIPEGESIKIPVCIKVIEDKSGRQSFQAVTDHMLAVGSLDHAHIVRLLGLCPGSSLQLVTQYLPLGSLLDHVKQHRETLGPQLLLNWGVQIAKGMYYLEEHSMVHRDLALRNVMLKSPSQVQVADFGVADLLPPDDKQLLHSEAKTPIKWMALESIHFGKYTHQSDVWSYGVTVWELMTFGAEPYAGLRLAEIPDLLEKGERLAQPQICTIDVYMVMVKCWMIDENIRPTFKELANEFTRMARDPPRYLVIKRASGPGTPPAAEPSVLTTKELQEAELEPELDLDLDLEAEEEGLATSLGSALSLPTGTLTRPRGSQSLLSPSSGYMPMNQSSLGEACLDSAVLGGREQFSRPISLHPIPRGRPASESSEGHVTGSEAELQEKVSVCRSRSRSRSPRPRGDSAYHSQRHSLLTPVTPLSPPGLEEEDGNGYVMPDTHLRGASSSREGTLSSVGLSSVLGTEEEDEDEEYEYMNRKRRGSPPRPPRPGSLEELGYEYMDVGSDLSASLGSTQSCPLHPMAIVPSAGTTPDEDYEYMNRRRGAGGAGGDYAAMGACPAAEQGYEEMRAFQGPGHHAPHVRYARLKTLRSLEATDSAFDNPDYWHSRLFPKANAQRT
T2 sequence (P06494 23-1257 partner): as the sequence (P06494 23-1257 partner) above
Experimental: as §1, §2, §3

Molecule | EC50 (ErbB4) | Selectivity SC/CM (ErbB4) | CM % Agonism AVG (ErbB4) | Schwann cells (SC) (ErbB3) Avg EC50 (M) (ErbB3) | EC50 (ErbB3)
B1 | 3.4 nM | >10000 | 91.6% | inactive | –
B2 | 1.9 nM | >10000 | 91.9% | inactive | –
B3 | 2.9 nM | >10000 | 94% | inactive | –
B4 | 2 nM | >10000 | 87.1% | inactive | –
B5 | 1.44 nM | >10000 | 106% | – | 10000 nM
B6 | 1.1 nM | >10000 | 96.47% | – | 10000 nM
B7 | 0.712 nM | >10000 | 105.7% | – | 10000 nM
B8 | 0.825 nM | >10000 | 91.82% | – | 10000 nM
B9 | 0.3 nM | >10000 | 85.4% | inactive | –
B10 | 0.23 nM | >10000 | 88.7% | inactive | –
B11 | 0.15 nM and 0.154 nM and 0.28 nM and 0.253 nM | – | – | – | –
B12 | 14.8 nM | 53 | – | – | 783 nM
B13 | 2.6 nM | 0.03 | – | – | 0.07 nM
